Assay results reported in patent US20140010832A1 (EPFL TTO, published 2014).

Target: Collagen I
Assay: ELISA; cytokine coated, ECM protein 0.02 to 320 nM, KD by non-linear fit

Collagen I, sequence (P02452 162-1218, chain 1 of 2): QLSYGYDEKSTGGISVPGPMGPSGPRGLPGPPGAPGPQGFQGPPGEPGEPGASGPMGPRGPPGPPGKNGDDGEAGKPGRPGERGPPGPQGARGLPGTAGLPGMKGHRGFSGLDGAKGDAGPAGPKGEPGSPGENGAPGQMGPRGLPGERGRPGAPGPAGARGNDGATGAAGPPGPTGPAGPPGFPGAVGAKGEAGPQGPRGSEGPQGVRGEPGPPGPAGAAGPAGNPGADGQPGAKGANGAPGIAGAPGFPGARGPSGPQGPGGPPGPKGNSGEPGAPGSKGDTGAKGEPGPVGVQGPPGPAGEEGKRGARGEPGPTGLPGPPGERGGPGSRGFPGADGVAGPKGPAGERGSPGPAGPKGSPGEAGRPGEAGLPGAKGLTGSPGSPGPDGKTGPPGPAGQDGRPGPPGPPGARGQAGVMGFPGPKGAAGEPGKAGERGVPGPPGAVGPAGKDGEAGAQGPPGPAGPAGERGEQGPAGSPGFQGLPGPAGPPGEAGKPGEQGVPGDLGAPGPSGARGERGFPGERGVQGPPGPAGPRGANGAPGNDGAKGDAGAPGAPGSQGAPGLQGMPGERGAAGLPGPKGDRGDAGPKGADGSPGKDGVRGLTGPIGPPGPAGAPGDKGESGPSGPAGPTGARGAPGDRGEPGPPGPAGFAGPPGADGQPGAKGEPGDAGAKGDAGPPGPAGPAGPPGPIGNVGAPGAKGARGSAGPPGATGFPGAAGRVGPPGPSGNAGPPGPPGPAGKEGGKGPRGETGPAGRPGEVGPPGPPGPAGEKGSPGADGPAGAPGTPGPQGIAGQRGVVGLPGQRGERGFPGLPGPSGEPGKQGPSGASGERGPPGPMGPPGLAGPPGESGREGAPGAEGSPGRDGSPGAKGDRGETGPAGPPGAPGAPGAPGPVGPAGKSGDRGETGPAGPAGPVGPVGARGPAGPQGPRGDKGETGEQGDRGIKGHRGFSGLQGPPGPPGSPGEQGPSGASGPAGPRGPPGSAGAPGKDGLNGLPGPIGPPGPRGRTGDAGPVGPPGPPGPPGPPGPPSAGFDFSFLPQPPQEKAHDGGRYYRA
Collagen I, sequence (P08123 80-1119, chain 2 of 2, further chain): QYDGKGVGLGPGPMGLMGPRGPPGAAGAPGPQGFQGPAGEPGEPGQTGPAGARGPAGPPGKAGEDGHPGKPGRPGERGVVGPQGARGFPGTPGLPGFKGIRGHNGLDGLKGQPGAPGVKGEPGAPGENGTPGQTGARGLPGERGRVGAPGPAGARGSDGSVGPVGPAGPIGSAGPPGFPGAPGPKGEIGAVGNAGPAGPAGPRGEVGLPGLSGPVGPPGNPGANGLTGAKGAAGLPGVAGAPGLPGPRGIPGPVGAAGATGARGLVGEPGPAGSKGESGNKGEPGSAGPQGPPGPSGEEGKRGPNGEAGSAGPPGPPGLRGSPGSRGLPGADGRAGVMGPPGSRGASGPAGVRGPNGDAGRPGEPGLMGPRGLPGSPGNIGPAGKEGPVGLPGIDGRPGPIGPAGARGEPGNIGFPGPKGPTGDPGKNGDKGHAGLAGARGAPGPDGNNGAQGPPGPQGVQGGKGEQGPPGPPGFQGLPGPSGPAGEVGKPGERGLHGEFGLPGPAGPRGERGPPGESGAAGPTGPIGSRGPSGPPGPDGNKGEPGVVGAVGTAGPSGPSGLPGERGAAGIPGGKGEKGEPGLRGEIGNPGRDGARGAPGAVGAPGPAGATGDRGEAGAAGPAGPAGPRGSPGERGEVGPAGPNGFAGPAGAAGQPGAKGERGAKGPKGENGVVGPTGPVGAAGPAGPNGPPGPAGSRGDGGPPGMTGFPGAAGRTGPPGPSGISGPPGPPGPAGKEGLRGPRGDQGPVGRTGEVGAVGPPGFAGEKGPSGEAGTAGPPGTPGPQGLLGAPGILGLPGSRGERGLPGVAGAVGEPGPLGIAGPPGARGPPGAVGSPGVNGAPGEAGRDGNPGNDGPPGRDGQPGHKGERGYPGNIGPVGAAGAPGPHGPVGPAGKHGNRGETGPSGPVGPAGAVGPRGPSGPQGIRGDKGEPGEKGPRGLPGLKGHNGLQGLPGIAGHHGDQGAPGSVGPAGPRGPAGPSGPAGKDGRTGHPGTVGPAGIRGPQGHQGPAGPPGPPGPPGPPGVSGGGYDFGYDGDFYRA

Row | Binder | Kd
1 | PlGF2 (ligand, also called PIGF-2; placenta growth factor 2) PAVPPQQWALSAGNGSSEVEVVPFQEVWGRSYCRALERLVDVVSEYPSEVEHMFSPSCVSLLRCTGCCGDENLHCVPVETANVTMQLLKIRSGDRPSYVELTFSQHVRCECRPLREKMKPERRRPKRGKRRREKQRPTDCHLCGDAVPRR | 126 nM
2 | human BMP-2-PlGF2123-144* (ligand, Inserted at the C-terminus of BMP-2) QAKHKQRKRLKSSCKRHPLYVDFSDVGWNDWIVAPPGYHAFYCHGECPFPLADHLNSTNHAIVQTLVNSVNSKIPKACCVPTELSAISMLYLDENEKVVLKNYQDMVVEGCGCRRRPKGRGKRRREKQRPTDSHL | 102 nM

Other lines, results leading:

Row | Kd | Binder
3 | 96.3 nM | human PDGF-BB-PlGF2123-144 (ligand) SLGSLTIAEPAMIAECKTRTEVFEISRRLIDRTNANFLVWPPCVEVQRCSGCCNNRNVQCRPTQVQLRPVQVRKIEIVRKKPIFKKATVTLEDHLACKCETVAAARPVTRRRPKGRGKRRREKQRPTDCHL
4 | 124 nM | human VEGF-A121-PlGF2123-144 (ligand) APMAEGGGQNHHEVVKFMDVYQRSYCHPIETLVDIFQEYPDEIEYIFKPSCVPLMRCGGCCNDEGLECVPTEESNITMQIMRIKPHQGQHIGEMSFLQHNKCECRPKKDRARQERRRPKGRGKRRREKQRPTDCHLCDKPRR
